The source of these data is publication doi:10.1101/2024.05.10.593590.

Some targets named below: U-CTD (hnRNP U RBD) (human, UniProt Q00839 673-825); U(702-809) (human, UniProt Q00839 702-809); U(702-825) (human, UniProt Q00839); U(702-777) (human, UniProt Q00839 702-777); U(702-793) (human, UniProt Q00839 702-793); U(702-761) (human, UniProt Q00839 702-761).
Test in all cases: fluorescence anisotropy
(Polarisation of emitted light reports the rotation of a fluorescent probe.)

Data set [1] has as its target T1, RGG1 (minimal first RGG/RG motif) (human, UniProt Q00839 702-745).
T1 chain: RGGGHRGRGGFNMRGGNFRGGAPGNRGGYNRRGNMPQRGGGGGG

A further data set addresses T2, U(702-745) (human, UniProt Q00839 702-745).
T2 chain: T1 chain

Sequence of U-CTD (hnRNP U RBD) (Q00839 673-825): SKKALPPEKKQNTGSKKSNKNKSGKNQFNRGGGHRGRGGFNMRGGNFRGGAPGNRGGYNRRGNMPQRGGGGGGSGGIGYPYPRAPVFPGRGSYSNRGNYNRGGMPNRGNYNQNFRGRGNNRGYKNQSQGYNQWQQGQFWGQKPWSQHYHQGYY
Sequence of U(702-793) (Q00839 702-793): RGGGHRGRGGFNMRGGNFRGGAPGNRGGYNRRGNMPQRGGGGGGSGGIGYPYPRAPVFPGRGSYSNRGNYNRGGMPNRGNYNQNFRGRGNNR
Sequence of U(702-825) (Q00839 702-825): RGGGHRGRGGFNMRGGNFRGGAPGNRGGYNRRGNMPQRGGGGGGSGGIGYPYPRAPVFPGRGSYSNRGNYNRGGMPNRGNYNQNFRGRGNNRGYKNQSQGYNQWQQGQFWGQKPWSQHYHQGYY
Sequence of U(702-777) (Q00839 702-777): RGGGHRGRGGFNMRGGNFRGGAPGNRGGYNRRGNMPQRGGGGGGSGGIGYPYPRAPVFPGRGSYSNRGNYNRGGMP
Sequence of U(702-809) (Q00839 702-809): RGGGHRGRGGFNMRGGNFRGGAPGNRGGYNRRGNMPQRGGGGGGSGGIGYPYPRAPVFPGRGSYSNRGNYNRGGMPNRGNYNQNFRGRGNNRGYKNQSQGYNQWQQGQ

B1: MTRNR2L6 antisense 75 nt (ssRNA)
RNA: GAACUUGUUCCGUUGAUCAAAUUAUUGGGUCAAUAUAUGUAUAGUAAUUCGCUUAAACUUGUUUAGUCUUAGCAC
With B1, in the data set with U-CTD (hnRNP U RBD), the “apparent K (half saturation)” value came to 410 ± 30 nM.

B2: MTRNR2L6 sense 50 nt (ssRNA)
RNA: GUGCUAAGACUAAACAAGUUUAAGCGAAUUACUAUACAUAUAUUGACCCA
For B2, in the data set with U-CTD (hnRNP U RBD), the “apparent K (half saturation)” value was 1000 ± 100 nM.

B3: MTRNR2L6 (structured_RNA)
RNA: GCUAUACAUAUAUUGACCCAAUAAUUUGAUCAACGGAACAAGUUACCCUAGGGAUAACAGCGCAAUCCUAUUCUAGAGUCCAUAUUGACAAUAGGGUUUACGACCUCGAUGUUGGAUCAGGACAUCCUAAUGGUGUAGC
For orientation: Kd means the free concentration of one partner at which half of the binding sites on the other are occupied at equilibrium, for simple one-to-one binding. With B3, the Kd was found to be 710 ± 10 nM with U(702-809), 220 ± 10 nM in the data set with U(702-825), 4200 ± 500 nM in the data set with U(702-777) and 1100 ± 100 nM with U(702-793).

B4: MTRNR2L6 antisense 150 nt (ssRNA)
RNA: GUGAUCCAACAUCGAGGUCGUAAACCCUAUUGUCAAUAUGGACUCUAGAAUAGGAUUGCGCUGUUAUCCCUAGGGUAACUUGUUCCGUUGAUCAAAUUAUUGGGUCAAUAUAUGUAUAGUAAUUCGCUUAAACUUGUUUAGUCUUAGCAC
Regarding B4, the “apparent K (half saturation)” value with U-CTD (hnRNP U RBD) stood at 190 ± 10 nM.

B5: MTRNR2L6 antisense 200 nt (ssRNA)
RNA: GAAUCAUUGAACAAAUGAACCCUUGAUAGCAGCUACACCAUUAGGAUGUCCUGAUCCAACAUCGAGGUCGUAAACCCUAUUGUCAAUAUGGACUCUAGAAUAGGAUUGCGCUGUUAUCCCUAGGGUAACUUGUUCCGUUGAUCAAAUUAUUGGGUCAAUAUAUGUAUAGUAAUUCGCUUAAACUUGUUUAGUCUUAGCAC
B5: the “apparent K (half saturation)” value with U-CTD (hnRNP U RBD) was 230 ± 10 nM.

B6: MTRNR2L6 sense 100 nt (ssRNA)
RNA: GUGCUAAGACUAAACAAGUUUAAGCGAAUUACUAUACAUAUAUUGACCCAAUAAUUUGAUCAACGGAACAAGUUACCCUAGGGAUAACAGCGCAAUCCUA
On to B6, for which, in the data set with U-CTD (hnRNP U RBD), the “apparent K (half saturation)” value was determined as 150 ± 20 nM.

B7: MTRNR2L6 sense 250 nt (ssRNA)
RNA: GUGCUAAGACUAAACAAGUUUAAGCGAAUUACUAUACAUAUAUUGACCCAAUAAUUUGAUCAACGGAACAAGUUACCCUAGGGAUAACAGCGCAAUCCUAUUCUAGAGUCCAUAUUGACAAUAGGGUUUACGACCUCGAUGUUGGAUCAGGACAUCCUAAUGGUGUAGCUGCUAUCAAGGGUUCAUUUGUUCAAUGAUUAAAGUCCUACGUGGUCUGAGUUCAGACCGGAGCAAGCCAGGUCUGGUACAU
B7: in the data set with U-CTD (hnRNP U RBD), the “apparent K (half saturation)” value came out at 100 ± 10 nM.

B8: MTRNR2L6 sense 75 nt (ssRNA)
RNA: GUGCUAAGACUAAACAAGUUUAAGCGAAUUACUAUACAUAUAUUGACCCAAUAAUUUGAUCAACGGAACAAGUUA
Take B8: the “apparent K (half saturation)” value with U-CTD (hnRNP U RBD) turned out to be 320 ± 30 nM.

B9: Antisense MTRNR2L6 (structured_RNA)
RNA: GGCUACACCAUUAGGAUGUCCUGAUCCAACAUCGAGGUCGUAAACCCUAUUGUCAAUAUGGACUCUAGAAUAGGAUUGCGCUGUUAUCCCUAGGGUAACUUGUUCCGUUGAUCAAAUUAUUGGGUCAAUAUAUGUAUAG
Turning to B9, the equilibrium dissociation constant (Kd) in the data set with U(702-809) worked out at 810 ± 60 nM; in the data set with U(702-825), 450 ± 10 nM; with U(702-777), 3900 ± 900 nM; with U(702-793), 1200 ± 100 nM.

B10: MTRNR2L6 antisense 50 nt (ssRNA)
RNA: GGGGUCAAUAUAUGUAUAGUAAUUCGCUUAAACUUGUUUAGUCUUAGCAC
Consider B10, for which the “apparent K (half saturation)” value with U-CTD (hnRNP U RBD) worked out at 480 ± 40 nM.

B11: MTRNR2L6 sense 300 nt (ssRNA)
RNA: GUGCUAAGACUAAACAAGUUUAAGCGAAUUACUAUACAUAUAUUGACCCAAUAAUUUGAUCAACGGAACAAGUUACCCUAGGGAUAACAGCGCAAUCCUAUUCUAGAGUCCAUAUUGACAAUAGGGUUUACGACCUCGAUGUUGGAUCAGGACAUCCUAAUGGUGUAGCUGCUAUCAAGGGUUCAUUUGUUCAAUGAUUAAAGUCCUACGUGGUCUGAGUUCAGACCGGAGCAAGCCAGGUCUGGUACAUGUGUAUUUAAGUCCUCCACACCUCCCAUCUAUAAGUCUUUUUAAAACAAA
Regarding B11, in the data set with U-CTD (hnRNP U RBD), the “apparent K (half saturation)” value was determined as 110 ± 10 nM.

B12: MTRNR2L6 antisense 100 nt (ssRNA)
RNA: GAGGAUUGCGCUGUUAUCCCUAGGGUAACUUGUUCCGUUGAUCAAAUUAUUGGGUCAAUAUAUGUAUAGUAAUUCGCUUAAACUUGUUUAGUCUUAGCAC
Take B12: the “apparent K (half saturation)” value with U-CTD (hnRNP U RBD) was 280 ± 20 nM.

B13: MTRNR2L6 sense 150 nt (ssRNA)
RNA: GUGCUAAGACUAAACAAGUUUAAGCGAAUUACUAUACAUAUAUUGACCCAAUAAUUUGAUCAACGGAACAAGUUACCCUAGGGAUAACAGCGCAAUCCUAUUCUAGAGUCCAUAUUGACAAUAGGGUUUACGACCUCGAUGUUGGAUCAG
As to B13, the “apparent K (half saturation)” value with U-CTD (hnRNP U RBD) is 130 ± 10 nM.

B14: MTRNR2L6 sense 25 nt (ssRNA)
RNA: GUGCUAAGACUAAACAAGUUUAAGC
Regarding B14, in the data set with U-CTD (hnRNP U RBD), the “apparent K (half saturation)” value worked out at 4900 ± 700 nM.

B15: Syncrip G-quad (structured_RNA)
RNA: GAGGGAGGGGAGGGAAGGGAAGGGAAGGGAAGGGGGGGAAACUUC
B15 had a Kd in data set [1] of about 1000 nM.

B16: MTRNR2L6 antisense 250 nt (ssRNA)
RNA: GUGUACCAGACCUGGCUUGCUCCGGUCUGAACUCAGACCACGUAGGACUUUAAUCAUUGAACAAAUGAACCCUUGAUAGCAGCUACACCAUUAGGAUGUCCUGAUCCAACAUCGAGGUCGUAAACCCUAUUGUCAAUAUGGACUCUAGAAUAGGAUUGCGCUGUUAUCCCUAGGGUAACUUGUUCCGUUGAUCAAAUUAUUGGGUCAAUAUAUGUAUAGUAAUUCGCUUAAACUUGUUUAGUCUUAGCAC
Take B16: in the data set with U-CTD (hnRNP U RBD), the “apparent K (half saturation)” value was 110 ± 10 nM.

B17: MTRNR2L6 antisense 25 nt (ssRNA)
RNA: GCUUAAACUUGUUUAGUCUUAGCAC
Turning to B17, the “apparent K (half saturation)” value in the data set with U-CTD (hnRNP U RBD) worked out at 6000 ± 300 nM.

B18: Syncrip (structured_RNA)
RNA: GAGGGAGGGGAGGGAAGGGAAGGGAAGGGAAGGGGGGGUCACGCGGGGGCGCGCGCGCGCACCGGGAGCGCGCUCGGAGGCGAGUGGAACUGGAUCGGGUUUGCUGCCAGCGGCGUGAGCUUC
With B18, the Kd with U(702-809) was 140 ± 50 nM; in the data set with U(702-825) it was 70 ± 19 nM; with U(702-777), 450 ± 160 nM; in data set [1], about 1000 nM; in the data set with U(702-793) it was 180 ± 50 nM; with U(702-761), 1100 ± 400 nM. In the data set with U(702-745), the Kd came to 910 ± 150 nM.

B19: MTRNR2L6 sense 200 nt (ssRNA)
RNA: GUGCUAAGACUAAACAAGUUUAAGCGAAUUACUAUACAUAUAUUGACCCAAUAAUUUGAUCAACGGAACAAGUUACCCUAGGGAUAACAGCGCAAUCCUAUUCUAGAGUCCAUAUUGACAAUAGGGUUUACGACCUCGAUGUUGGAUCAGGACAUCCUAAUGGUGUAGCUGCUAUCAAGGGUUCAUUUGUUCAAUGAUUA
Take B19: the “apparent K (half saturation)” value with U-CTD (hnRNP U RBD) is 210 ± 20 nM.

B20: MTRNR2L6 antisense 300 nt (ssRNA)
RNA: GUUGUUUUAAAAAGACUUAUAGAUGGGAGGUGUGGAGGACUUAAAUACACAUGUACCAGACCUGGCUUGCUCCGGUCUGAACUCAGACCACGUAGGACUUUAAUCAUUGAACAAAUGAACCCUUGAUAGCAGCUACACCAUUAGGAUGUCCUGAUCCAACAUCGAGGUCGUAAACCCUAUUGUCAAUAUGGACUCUAGAAUAGGAUUGCGCUGUUAUCCCUAGGGUAACUUGUUCCGUUGAUCAAAUUAUUGGGUCAAUAUAUGUAUAGUAAUUCGCUUAAACUUGUUUAGUCUUAGCAC
Turning to B20, in the data set with U-CTD (hnRNP U RBD), the “apparent K (half saturation)” value came out at 110 ± 10 nM.

B21: Antisense Syncrip (structured_RNA)
RNA: GAAGCUCACGCCGCUGGCAGCAAACCCGAUCCAGUUCCACUCGCCUCCGAGCGCGCUCCCGGUGCGCGCGCGCGCCCCCGCGUGACCCCCCCUUCCCUUCCCUUCCCUUCCCUCCCCUCCCUC
Consider B21, for which the Kd in the data set with U(702-809) was determined as 1600 ± 100 nM; in the data set with U(702-825), 570 ± 10 nM; with U(702-777), 14000 ± 2000 nM; with U(702-793), 3000 ± 200 nM.
